According to patent publication US20200079848A1 (Five Prime, published 2020):
“And” between values parts separate entries of the source, which are not always exact repeats. Equal entries are not always repeated.

B1: 21A5.IgG1.3 (antibody, V domains shown)
VH: QVQLVQSGAEVKKPGASVKVSCKASGYTFTDYYLHWVRQAPGQGLEWMGIFHPSGDITSSAQNFQGRVTMIRDTSTSTVYMELSSLRSEDTAVYYCARGGVLRYLDWSHAFDIWGQGTMVTVSS
VL: EIALTQSPGTLSLSPGERATLSCRASQSVSSSYLAWYQQKPGQAPRLLIYGASSRATGIPDRFSGSGSGTDFTLTISRLEPEDFAVYYCQQYGSTFGGGTKVEIKR
notes: Fully human antibody, IgG1.3, kappa; also called 21A5 WT; 21A5WT
B2: 21D9.IgG1.3 (antibody)
heavy: EGQLLESGGDLVQPGGSLRLSCATSGFTFSNYAMNWVRQAPGKGLEWISVISVSGGSTYYADSVKGRFTISRDNSKNTLYLQMNSLRAEDTAVYYCAKDYYYDSGSYYDSFFDYWGQGTLVTVSSASTKGPSVFPLAPSSKSTSGGTAALGCLVKDYFPEPVTVSWNSGALTSGVHTFPAVLQSSGLYSLSSVVTVPSSSLGTQTYICNVNHKPSNTKVDKRVEPKSCDKTHTCPPCPAPEAEGAPSVFLFPPKPKDTLMISRTPEVTCVVVDVSHEDPEVKFNWYVDGVEVHNAKTKPREEQYNSTYRVVSVLTVLHQDWLNGKEYKCKVSNKALPAPIEKTISKAKGQPREPQVYTLPPSREEMTKNQVSLTCLVKGFYPSDIAVEWESNGQPENNYKTTPPVLDSDGSFFLYSKLTVDKSRWQQGNVFSCSVMHEALHNHYTQKSLSLSPG
light: not shown
notes: also called 21D9 WT; ILT4.6.IgG1.3
B3: 21D9.e.IgG1.3 (antibody, V domains shown)
VH: EVQLLESGGGLVQPGGSLRLSCAASGFTFSNYAMNWVRQAPGKGLEWVSVISVSGGSTYYADSVKGRFTISRDNSKNTLYLQMNSLRAEDTAVYYCAKDYYYDSGSYYDSFFDYWGQGTLVTVSS
VL: not shown
notes: Germline reversion mutant of 21D9 with all four VH reversions; light chain of 21D9; IgG1.3; also called ILT4.8.IgG1.3; ILT4.8

Assays:
hILT4-His-Avi tag [1] = biological target: T1, hILT4-His-Avi tag (human, UniProt Q8N423 22-459); test: SPR Biacore T200, 37 C; antibody captured by anti-human Fc on CM4 chip, hILT4-His-Avi as analyte; 1:1 Langmuir fit
T1 construct: also called monomeric human ILT4; extracellular region of hILT4 linked to a His-Avi tag
T1 sequence (Q8N423 other isoform, or with tags, fused parts or gaps): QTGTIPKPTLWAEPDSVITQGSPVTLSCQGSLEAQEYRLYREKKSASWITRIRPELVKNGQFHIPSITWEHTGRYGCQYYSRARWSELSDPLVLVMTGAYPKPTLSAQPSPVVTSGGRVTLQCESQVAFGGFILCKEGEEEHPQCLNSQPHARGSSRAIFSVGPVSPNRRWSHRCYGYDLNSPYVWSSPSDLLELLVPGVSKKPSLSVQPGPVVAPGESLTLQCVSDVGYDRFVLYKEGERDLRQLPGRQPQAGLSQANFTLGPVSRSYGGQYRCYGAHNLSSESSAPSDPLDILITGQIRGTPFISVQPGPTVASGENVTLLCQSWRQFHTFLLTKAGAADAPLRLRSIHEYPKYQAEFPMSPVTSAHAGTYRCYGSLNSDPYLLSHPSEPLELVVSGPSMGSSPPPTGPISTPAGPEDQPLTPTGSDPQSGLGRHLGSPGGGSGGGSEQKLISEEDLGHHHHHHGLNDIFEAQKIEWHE
Experimental: The running buffer was 10 mM HEPES pH 7.4 supplemented with 0.05% Tween-20 and 1 g/L BSA. All anti-ILT4 antibodies were captured on a CM4 chip with pre-immobilized anti-human Fc capture antibody from Southern Biotech (catalog number 2081-01). […] All data were double-referenced and fitted to a 1:1 Langmuir model with mass transport using Biacore T200 Evaluation Software version 3.1.

hILT4-His-Avi tag [2] = biological target: T1, hILT4-His-Avi tag; test: SPR Biacore T200, 37 C; antibody captured on protein A/G chip, monomeric hILT4 as analyte; kinetic fit
Experimental: The binding kinetics of the parent and germline reversion mutant anti-hILT4 antibodies (in the context of IgG1.3) were measured via Surface Plasmon Resonance (SPR) using a Biacore® T200 instrument. The assay temperature was 37° C. and the running buffer was PBS pH 7.4 supplemented with 0.05% Tween-20. Allanti-hILT4 antibodies were captured on a CM4 chip with pre-immobilized protein A/G (Pierce Thermo Scientific catalog number 21186). […] Monomeric human ILT4 was injected as analyte. […] The hILT4 used in this experiment, comprising the extracellular region of hILT4 linked to a His-Avi tag, consists of the following amino acid sequence: […]

[3] = biological target: T2, human ILT4 (hILT4) expressed on cells (human, UniProt Q8N423 22-597); test: flow cytometry on hILT4-transfected CHO cells, PE anti-human IgG secondary, GMFI (PE); EC50 from the table below the graph; the table has no unit, the concentration axis is in ug/mL
T2 construct: hILT4 on transfected CHO or 293T cells, or native on human monocytes and macrophages; also called LILRB2
T2 sequence (Q8N423 other isoform, or with tags, fused parts or gaps): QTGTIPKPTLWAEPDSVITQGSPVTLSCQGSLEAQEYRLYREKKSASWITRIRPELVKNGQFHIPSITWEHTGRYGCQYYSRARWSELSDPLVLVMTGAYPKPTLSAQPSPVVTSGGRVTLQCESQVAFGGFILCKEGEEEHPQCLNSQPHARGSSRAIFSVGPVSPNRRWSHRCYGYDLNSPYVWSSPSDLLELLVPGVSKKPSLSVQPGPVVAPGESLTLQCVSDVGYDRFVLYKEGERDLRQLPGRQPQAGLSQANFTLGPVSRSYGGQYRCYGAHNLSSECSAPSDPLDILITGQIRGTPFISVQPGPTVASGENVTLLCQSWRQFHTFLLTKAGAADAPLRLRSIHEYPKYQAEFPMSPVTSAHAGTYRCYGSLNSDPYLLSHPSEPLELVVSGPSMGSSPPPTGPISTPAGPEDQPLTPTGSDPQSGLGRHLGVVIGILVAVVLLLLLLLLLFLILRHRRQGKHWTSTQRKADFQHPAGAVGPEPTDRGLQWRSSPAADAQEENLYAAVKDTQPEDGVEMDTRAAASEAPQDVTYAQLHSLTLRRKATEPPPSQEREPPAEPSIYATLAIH

rhILT4-Fc [4] = biological target: T3, rhILT4-Fc (human, UniProt Q8N423-1 22-461); test: flow cytometry blocking assay: antibody titrated (12 points) with rhILT4-Fc fixed at 30 µg/ml; rhILT4-Fc bound to HLA-A overexpressing CHO cells read as % Positive; blocked ligand: HLA-A; the IC50 table has no unit, the concentration axis is in ug/mL
T3 construct: also called rhILT4-Fc fusion protein with a murine Fc tail; not shown: murine Fc tail

rhILT4-Fc [5] = biological target: T3, rhILT4-Fc; test: flow cytometry blocking assay: antibody titrated (12 points) with rhILT4-Fc fixed at 30 µg/ml; rhILT4-Fc bound to HLA-B overexpressing CHO cells read as % Positive; blocked ligand: HLA-B; the IC50 table has no unit, the concentration axis is in ug/mL
human LIR8 = biological target: T4, human LIR8 (human, UniProt O75023 24-590); test: flow cytometry, 293T transfectants, antibody 20 µg/ml; stacked histograms, control: parental cells
T4 construct: whole, on cells; also called hLIR8
T4 sequence (O75023 24-590): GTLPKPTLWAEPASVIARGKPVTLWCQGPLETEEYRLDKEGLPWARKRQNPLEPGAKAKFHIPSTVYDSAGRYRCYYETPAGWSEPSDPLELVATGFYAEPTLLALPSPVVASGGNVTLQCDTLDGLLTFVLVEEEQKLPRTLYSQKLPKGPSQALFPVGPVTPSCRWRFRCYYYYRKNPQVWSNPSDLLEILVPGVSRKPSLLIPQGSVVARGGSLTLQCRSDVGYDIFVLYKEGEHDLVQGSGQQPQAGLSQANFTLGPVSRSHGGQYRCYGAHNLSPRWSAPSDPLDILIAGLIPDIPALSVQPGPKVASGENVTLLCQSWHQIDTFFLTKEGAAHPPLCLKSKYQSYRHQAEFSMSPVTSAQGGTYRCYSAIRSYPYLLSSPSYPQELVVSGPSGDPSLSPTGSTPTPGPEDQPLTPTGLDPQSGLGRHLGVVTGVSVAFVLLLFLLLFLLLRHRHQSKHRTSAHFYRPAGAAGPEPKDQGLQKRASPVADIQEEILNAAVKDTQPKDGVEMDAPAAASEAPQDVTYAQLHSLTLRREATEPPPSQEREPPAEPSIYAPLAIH
Experimental: (§1) Individual ILT family members were overexpressed in 293T cells. Each transfectant was stained with 20 μg/ml of anti-ILT4 antibodies followed by 1 μg/ml of anti-human IgG secondary mAb. Binding of the antibodies to each transfectant was measured by flow cytometry.

human LILRA2 = biological target: T5, human LILRA2 (human, UniProt Q8N149 24-483); test: as above
T5 construct: whole, on cells; also called hLILRA2
T5 sequence (Q8N149 24-483): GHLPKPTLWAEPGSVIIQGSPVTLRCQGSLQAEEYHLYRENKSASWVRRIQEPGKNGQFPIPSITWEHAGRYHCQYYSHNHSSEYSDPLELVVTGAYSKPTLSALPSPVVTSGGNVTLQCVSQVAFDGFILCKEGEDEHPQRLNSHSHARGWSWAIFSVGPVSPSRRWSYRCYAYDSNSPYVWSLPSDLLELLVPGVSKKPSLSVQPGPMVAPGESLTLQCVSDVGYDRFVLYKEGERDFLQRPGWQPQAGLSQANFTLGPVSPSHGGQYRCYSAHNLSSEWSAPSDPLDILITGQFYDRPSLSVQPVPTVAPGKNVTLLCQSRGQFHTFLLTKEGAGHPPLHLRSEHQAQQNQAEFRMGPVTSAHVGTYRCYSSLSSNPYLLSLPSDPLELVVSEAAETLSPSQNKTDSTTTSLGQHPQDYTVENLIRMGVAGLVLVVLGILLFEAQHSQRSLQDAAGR
Experimental: as §1

human LILRA6 = biological target: T6, human LILRA6 (human, UniProt Q6PI73 24-481); test: as above
T6 construct: whole, on cells; also called hLILRA6
T6 sequence (Q6PI73 24-481): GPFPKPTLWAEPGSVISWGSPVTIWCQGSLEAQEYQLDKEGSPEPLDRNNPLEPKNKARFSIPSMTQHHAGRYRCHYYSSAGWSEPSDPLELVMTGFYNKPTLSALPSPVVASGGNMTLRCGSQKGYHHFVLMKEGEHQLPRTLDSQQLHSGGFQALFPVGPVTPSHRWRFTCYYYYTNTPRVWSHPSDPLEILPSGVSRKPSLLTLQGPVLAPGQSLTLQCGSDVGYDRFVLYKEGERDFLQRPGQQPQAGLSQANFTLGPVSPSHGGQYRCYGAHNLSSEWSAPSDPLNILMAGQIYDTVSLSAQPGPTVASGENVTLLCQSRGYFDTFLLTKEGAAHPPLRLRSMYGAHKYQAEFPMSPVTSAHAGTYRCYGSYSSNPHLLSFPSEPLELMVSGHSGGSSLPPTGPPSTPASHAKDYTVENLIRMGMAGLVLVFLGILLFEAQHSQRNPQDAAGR
Experimental: as §1

human LILRA5 [6] = biological target: T7, human LILRA5 (human, UniProt A6NI73 42-299); test: as above
T7 construct: whole, on cells; also called hLILRA5
Experimental: as §1

human ILT5 = biological target: T8, human ILT5 (human, UniProt O75022 24-631); test: as above
T8 construct: whole, on cells; also called hILT5; LILRB3
Experimental: as §1

human ILT3 = biological target: T9, human ILT3 (human, UniProt Q8NHJ6 22-448); test: as above
T9 construct: whole, on cells; also called hILT3
Experimental: as §1

human LILRA4 = biological target: T10, human LILRA4 (human, UniProt P59901 24-499); test: as above
T10 construct: whole, on cells; also called hLILRA4
T10 sequence (P59901 24-499): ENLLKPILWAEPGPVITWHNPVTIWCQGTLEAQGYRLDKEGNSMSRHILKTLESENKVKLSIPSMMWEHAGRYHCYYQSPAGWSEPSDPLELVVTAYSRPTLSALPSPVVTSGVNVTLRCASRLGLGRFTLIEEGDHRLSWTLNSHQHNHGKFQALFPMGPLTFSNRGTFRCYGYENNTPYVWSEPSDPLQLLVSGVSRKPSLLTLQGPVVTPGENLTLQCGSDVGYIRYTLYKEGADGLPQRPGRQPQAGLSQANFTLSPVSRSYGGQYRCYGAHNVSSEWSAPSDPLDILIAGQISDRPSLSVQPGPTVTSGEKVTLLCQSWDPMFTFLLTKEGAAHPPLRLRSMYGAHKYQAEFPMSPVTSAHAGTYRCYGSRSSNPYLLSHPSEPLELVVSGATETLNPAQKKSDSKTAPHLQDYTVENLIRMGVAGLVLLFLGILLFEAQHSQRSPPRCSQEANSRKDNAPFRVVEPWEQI
Experimental: as §1

human ILT2 = biological target: T11, human ILT2 (human, UniProt Q8NHL6 24-650); test: as above
T11 construct: whole, on cells; also called hILT2
T11 sequence (Q8NHL6 24-650): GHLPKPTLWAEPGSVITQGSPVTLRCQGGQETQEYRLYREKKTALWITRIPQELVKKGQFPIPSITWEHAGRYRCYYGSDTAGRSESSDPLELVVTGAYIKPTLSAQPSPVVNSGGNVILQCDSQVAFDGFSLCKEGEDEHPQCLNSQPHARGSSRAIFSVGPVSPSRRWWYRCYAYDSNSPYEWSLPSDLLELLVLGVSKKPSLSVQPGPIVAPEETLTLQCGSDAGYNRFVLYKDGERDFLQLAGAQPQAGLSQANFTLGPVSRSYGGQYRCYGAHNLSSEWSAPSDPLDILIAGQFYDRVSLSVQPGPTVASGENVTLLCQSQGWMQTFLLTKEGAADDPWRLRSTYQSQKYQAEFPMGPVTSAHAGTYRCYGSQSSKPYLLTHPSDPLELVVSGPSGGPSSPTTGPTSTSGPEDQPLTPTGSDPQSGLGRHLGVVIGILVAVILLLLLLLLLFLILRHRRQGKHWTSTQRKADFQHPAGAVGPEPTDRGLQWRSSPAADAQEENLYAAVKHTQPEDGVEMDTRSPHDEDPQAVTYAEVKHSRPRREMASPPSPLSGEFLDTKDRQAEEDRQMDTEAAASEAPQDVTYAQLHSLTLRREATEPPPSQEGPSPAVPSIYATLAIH
Experimental: as §1

[7] = biological target: T2, human ILT4 (hILT4) expressed on cells; test: flow cytometry cross-blocking on hILT4 CHO cells: unlabelled antibody titrated from 40 µg/mL, then PE-2H2.IgG1.1f at 1.5 µg/mL; competitor: PE-2H2; GMFI (PE) falls from about 330 to about 25; the table calls the value EC50 and has no unit, the concentration axis is in µg/mL
Description: (§2) After washing, the samples were acquired on a FACSCanto™ cytometer (BD Bioscience, San Jose) and analyzed with Flowjo™ software (Tree Star, Inc, Ashland, Oreg.).

human LILRA3 [8] = biological target: T12, human LILRA3 (human, UniProt Q8N6C8 24-439); test: antibody titration flow cytometry binding assay on transfected cells, nonlinear regression
T12 construct: whole, on cells; also called hLILRA3; LIRA3
T12 sequence (Q8N6C8 24-439): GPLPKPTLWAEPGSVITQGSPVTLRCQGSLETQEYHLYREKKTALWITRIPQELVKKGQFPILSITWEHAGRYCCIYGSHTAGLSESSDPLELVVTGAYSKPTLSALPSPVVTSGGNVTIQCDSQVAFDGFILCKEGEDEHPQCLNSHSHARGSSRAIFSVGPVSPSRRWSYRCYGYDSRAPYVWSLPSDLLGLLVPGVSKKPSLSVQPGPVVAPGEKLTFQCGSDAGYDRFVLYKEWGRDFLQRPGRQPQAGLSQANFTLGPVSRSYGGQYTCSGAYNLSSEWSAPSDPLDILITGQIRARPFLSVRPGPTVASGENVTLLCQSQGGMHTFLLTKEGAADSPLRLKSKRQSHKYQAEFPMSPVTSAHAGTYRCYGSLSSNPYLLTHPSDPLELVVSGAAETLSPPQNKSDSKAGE

[9] = biological target: T2, human ILT4 (hILT4) expressed on cells; test: as above
human LILRA1 [10] = biological target: T13, human LILRA1 (human, UniProt O75019 17-489); test: as above
T13 construct: whole, on cells; also called hLILRA1; LIRA1
T13 sequence (O75019 17-489): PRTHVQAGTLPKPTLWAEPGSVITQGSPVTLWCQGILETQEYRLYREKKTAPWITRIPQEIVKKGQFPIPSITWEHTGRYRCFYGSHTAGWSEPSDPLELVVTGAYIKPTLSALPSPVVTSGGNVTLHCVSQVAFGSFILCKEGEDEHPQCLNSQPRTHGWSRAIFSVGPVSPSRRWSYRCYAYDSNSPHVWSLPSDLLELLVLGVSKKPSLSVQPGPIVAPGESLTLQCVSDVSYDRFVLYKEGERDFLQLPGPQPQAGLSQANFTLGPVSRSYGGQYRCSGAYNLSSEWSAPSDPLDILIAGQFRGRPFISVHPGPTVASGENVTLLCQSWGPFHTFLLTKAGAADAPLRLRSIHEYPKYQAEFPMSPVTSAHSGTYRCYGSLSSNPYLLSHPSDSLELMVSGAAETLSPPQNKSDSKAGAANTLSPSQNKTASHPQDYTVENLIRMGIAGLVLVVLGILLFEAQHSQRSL

[11] = biological target: T2, human ILT4 (hILT4) expressed on cells; test: flow cytometry cross-blocking on hILT4 CHO cells: unlabelled antibody titrated from 40 µg/mL, then PE-21D9.IgG1.1f at 1.5 µg/mL; competitor: PE-21D9; the 21A5 curve does NOT fall: GMFI (PE) goes from about 615 up to about 665, no blocking of PE-21D9; the printed EC50 belongs to this small rise; table without unit, axis in µg/mL
Description: as §2

[12] = biological target: T14, cyno ILT4 9152 extracellular domain, including His-Avi Tag (cynomolgus monkey); test: SPR ProteOn XPR36, 37 C; antibody amine-coupled to GLC chip, ILT4 ECD-His-Avi as analyte; kinetic titration
T14 sequence (chain, as listed by the source limits assumed): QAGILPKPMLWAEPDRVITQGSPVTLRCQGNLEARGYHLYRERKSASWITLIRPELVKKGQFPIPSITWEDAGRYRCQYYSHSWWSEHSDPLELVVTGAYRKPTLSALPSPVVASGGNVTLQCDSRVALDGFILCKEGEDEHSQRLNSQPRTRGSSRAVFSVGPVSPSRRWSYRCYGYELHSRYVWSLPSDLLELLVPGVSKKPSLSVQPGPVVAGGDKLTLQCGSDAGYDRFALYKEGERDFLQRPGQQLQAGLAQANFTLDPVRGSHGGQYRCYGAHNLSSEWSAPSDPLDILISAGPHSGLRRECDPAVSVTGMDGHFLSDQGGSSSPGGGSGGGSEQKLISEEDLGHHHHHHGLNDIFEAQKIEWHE
Experimental: (§3) The antibody was amine-coupled to a GLC sensor chip in a Proteon XPR36 instrument (BioRad). […] All data were double-referenced, exported, and analyzed with BIAevaluation Software 4.1.1 using the kinetic titration model described by Karlsson et al (Karlsson et al. (2005) Analytical Biochem. 349:136). The running buffer consisted of 10 mM HEPES pH 7.4, 150 mM NaCl and 0.05% Tween-20. The assay temperature was 37° C.

hILT4-His-Avi tag [13] = biological target: T1, hILT4-His-Avi tag; test: as above
Experimental: as §3

[14] = biological target: T14, cyno ILT4 9152 extracellular domain, …; test: SPR ProteOn XPR36, 37 C; antibody amine-coupled to GLC chip, ILT4 ECD-His-Avi as analyte
Experimental: as §3

human LILRA3 [15] = biological target: T12, human LILRA3; test: flow cytometry, 293T transfectants, antibody 20 µg/ml; stacked histograms, control: parental cells
Experimental: as §1

human LILRA1 [16] = biological target: T13, human LILRA1; test: as above
Experimental: as §1

human LILRA5 [17] = biological target: T7, human LILRA5; test: antibody titration flow cytometry binding assay on transfected cells, nonlinear regression
[18] = biological target: T2, human ILT4 (hILT4) expressed on cells; test: flow cytometry on human monocytes of a healthy donor, directly labelled antibody, GMFI; EC50 from the table below the graph; the table has no unit, the concentration axis is in ug/mL
Description: In FIG. 18B, monocytes selected from a normal healthy donor's peripheral blood were stained with individual anti-ILT4 antibodies conjugated to […].

Binder	Kd (hILT4-His-Avi tag [1]) [nM]	app. act. (hILT4-His-Avi tag [1]) [%]	koff (hILT4-His-Avi tag [1]) [s⁻¹]	kon (hILT4-His-Avi tag [1]) [M⁻¹ s⁻¹]	Kd (hILT4-His-Avi tag [2])	app. act. (hILT4-His-Avi tag [2]) [%]	koff (hILT4-His-Avi tag [2])	kon (hILT4-His-Avi tag [2])	EC50 [3] [mg/L]	binding result (human LIR8)	binding result (human LILRA2)	binding result (human LILRA6)	binding result (human ILT5)	binding result (human ILT3)	binding result (human LILRA4)	binding result (human ILT2)	EC50 [9] [mg/L]	Kd (hILT4-His-Avi tag [13]) [nM]	also measured
B1	0.023	98	1.2e-05	520000	0.14 nM	126	0.00017 s⁻¹	1.2e+06 M⁻¹ s⁻¹	0.0518	no binding (tested: 20 µg/ml)	no binding (tested: 20 µg/ml)	no binding (tested: 20 µg/ml)	no binding (tested: 20 µg/ml)	no binding (tested: 20 µg/ml)	no binding (tested: 20 µg/ml)	no binding (tested: 20 µg/ml)	0.091		IC50 (rhILT4-Fc [4]): 3.83 mg/L; IC50 (rhILT4-Fc [5]): 1.61 mg/L; binding result (human LILRA5 [6]): no binding (tested: 20 µg/ml); EC50 [7]: 0.0738 mg/L; EC50 (human LILRA3 [8]): 9.18 mg/L; EC50 (human LILRA1 [10]): 12.5 mg/L; EC50 [11]: 0.0898 mg/L
B2	0.5	70	0.00054	1.1e+06	0.31 nM and 0.32 nM and 0.37 nM		0.001 s⁻¹ and 0.0011 s⁻¹	3.3e+06 M⁻¹ s⁻¹ and 3.2e+06 M⁻¹ s⁻¹ and 3e+06 M⁻¹ s⁻¹	0.0127									0.32	Kd [12]: 4 nM; koff [12]: 0.0035 s⁻¹; kon [12]: 880000 M⁻¹ s⁻¹; koff (hILT4-His-Avi tag [13]): 0.00026 s⁻¹; kon (hILT4-His-Avi tag [13]): 820000 M⁻¹ s⁻¹; fold weaker affinity than for human ILT4 [14]: ~12 fold
B3	0.58	94			0.39 nM	93			0.00416	no binding (tested: 20 µg/ml)	no binding (tested: 20 µg/ml)	no binding (tested: 20 µg/ml)	no binding (tested: 20 µg/ml)	no binding (tested: 20 µg/ml)	no binding (tested: 20 µg/ml)	no binding (tested: 20 µg/ml)	0.039	0.33	binding result (human LILRA3 [15]): no binding (tested: 20 µg/ml); binding result (human LILRA1 [16]): no binding (tested: 20 µg/ml); EC50 (human LILRA5 [17]): ~313 mg/L; EC50 [18]: 0.0341 mg/L
